In patent US20150259380A1 (SANFORD BURNHAM MEDICAL RESEARCH INSTITUTE, published 2015):
Ends that are not written are not given here.

T1: recombinant human NRP1 (R&D), purified (human, UniProt O14786-2 22-644, limits assumed)
T1 construct: Bought protein; also called purified NRP1; immobilized NRP1
T1 sequence (looked up): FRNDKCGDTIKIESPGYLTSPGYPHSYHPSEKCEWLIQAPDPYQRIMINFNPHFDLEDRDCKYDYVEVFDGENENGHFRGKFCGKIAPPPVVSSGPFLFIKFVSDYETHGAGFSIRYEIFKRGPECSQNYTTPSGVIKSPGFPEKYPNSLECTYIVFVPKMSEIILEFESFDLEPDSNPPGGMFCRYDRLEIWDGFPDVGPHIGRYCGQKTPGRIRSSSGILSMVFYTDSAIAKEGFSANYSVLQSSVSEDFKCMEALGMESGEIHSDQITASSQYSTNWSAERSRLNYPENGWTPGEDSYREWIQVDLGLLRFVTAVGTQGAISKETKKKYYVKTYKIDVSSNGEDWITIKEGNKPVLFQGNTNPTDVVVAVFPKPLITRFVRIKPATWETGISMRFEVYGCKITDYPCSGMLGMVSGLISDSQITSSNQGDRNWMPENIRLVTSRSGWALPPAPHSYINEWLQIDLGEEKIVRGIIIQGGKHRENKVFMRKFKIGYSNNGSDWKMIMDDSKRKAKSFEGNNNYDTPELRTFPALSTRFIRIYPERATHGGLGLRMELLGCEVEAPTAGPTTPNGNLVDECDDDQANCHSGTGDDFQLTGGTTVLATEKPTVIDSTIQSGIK

T2: recombinant human NRP2 Fc chimera (R&D), purified (human, UniProt O60462 23-864)
T2 construct: Bought Fc chimera; also called purified NRP2; neuropilin-2; Fc part of the bought chimera not given; not described
T2 sequence (looked up): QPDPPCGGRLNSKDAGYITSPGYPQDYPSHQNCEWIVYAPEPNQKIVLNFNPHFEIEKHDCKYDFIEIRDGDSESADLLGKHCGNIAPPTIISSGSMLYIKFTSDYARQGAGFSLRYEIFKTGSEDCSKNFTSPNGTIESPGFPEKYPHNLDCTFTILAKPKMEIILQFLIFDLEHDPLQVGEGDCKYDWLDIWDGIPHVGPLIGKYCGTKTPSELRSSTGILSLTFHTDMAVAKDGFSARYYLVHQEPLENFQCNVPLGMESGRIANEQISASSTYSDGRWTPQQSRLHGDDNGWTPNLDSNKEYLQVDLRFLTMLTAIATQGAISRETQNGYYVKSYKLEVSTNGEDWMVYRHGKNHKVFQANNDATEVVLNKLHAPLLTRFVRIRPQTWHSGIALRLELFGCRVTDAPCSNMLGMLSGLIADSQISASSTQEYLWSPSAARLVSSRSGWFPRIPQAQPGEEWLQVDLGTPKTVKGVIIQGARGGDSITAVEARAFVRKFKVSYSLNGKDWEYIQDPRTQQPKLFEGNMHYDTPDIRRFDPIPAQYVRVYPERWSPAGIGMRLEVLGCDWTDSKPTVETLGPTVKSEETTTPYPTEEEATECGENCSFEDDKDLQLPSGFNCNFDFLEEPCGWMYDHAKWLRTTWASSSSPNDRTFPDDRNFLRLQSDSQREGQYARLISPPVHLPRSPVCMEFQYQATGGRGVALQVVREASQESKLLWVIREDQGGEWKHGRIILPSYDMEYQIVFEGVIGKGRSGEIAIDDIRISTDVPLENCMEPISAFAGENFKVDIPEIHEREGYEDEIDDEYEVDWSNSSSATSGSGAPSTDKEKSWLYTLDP

T3: p32 in 4T1 breast tumor extracts (mouse, UniProt O35658 71-278)
T3 construct: Endogenous protein from tumor extract
T3 sequence (looked up): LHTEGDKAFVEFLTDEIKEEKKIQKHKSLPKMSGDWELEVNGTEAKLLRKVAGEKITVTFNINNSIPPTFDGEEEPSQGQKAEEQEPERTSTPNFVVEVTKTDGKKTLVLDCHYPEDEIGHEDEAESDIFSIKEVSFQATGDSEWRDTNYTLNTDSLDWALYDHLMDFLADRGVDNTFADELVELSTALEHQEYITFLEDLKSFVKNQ

B1: RPARPAR phage (T7 phage displaying the prototypic CendR peptide RPARPAR) (peptide)
peptide: RPARPAR
B2: LyP-1 phage (T7 phage displaying full-length LyP-1, CGNKRTRGC) (peptide)
peptide: CGNKRTRGC
modifications: also: cyclic nonapeptide, ring not given here, displayed on T7 phage
notes: LyP-1 is described as a cyclic nonapeptide; also called intact LyP-1
B3: tLyP-1 affinity matrix (immobilized tLyP-1 peptide) (peptide)
peptide: CGNKRTR
notes: the coupling is not described
B4: CGNKR phage (truncated LyP-1, amino acids 1-5 of SEQ ID NO:10) (peptide)
peptide: CGNKR
B5: CGNK phage (truncated LyP-1, amino acids 1-4 of SEQ ID NO:10) (peptide)
peptide: CGNK
B6: tLyP-1 phage (T7 phage displaying CGNKRTR, truncated LyP-1) (peptide)
peptide: CGNKRTR
notes: also called CGNKRTR phage; phage tLyP-1

How the values were obtained:
[1] = target: T1, recombinant human NRP1 (R&D), purified; experiment: phage binding to NRP1-coated microtiter wells, plaque titration (FIG. 2)
Experimental: (§1) Microtiter wells (Costar) were coated with 5 μg/mL of purified NRP1 or NRP2, blocked with PBS supplemented with 0.5% BSA and incubated with 10⁸ plaque-forming units (pfu) of phage in 100 μL of PBS/0.05% Tween 20 for 20 h at 37° C. After six washes in PBS/0.05% Tween 20, bound phage was eluted with 200 μL of 1 M Tris-HCl (pH 7.5)/0.5% SDS for 30 min and quantified by a plaque assay (titration).

[2] = target: T2, recombinant human NRP2 Fc chimera …; experiment: phage binding to NRP2-coated microtiter wells, plaque titration (FIG. 3A)
Experimental: B. MDA-MB-435 cells were incubated with phage at 4° C. to assess NRP2 binding. […] Binding is expressed as percentage of binding in control conditions. (mean±SEM; n=4/group; * p<0.05; **, p<0.01).
as §1

[3] = target: T4, NRP1 on human tumor cells (DU145 prostate carcinoma cells; PPC1 prostate tumor cells) (human, UniProt O14786 22-923); experiment: 10^9 pfu phage on cultured PPC1 cells, anti-T7 staining, confocal microscopy
T4 construct: whole, on cells; DU145 express NRP1 but not NRP2; PPC1 express very high NRP1 and low NRP2; also called neuropilin-1; CendR receptor
Experimental: Phage were detected by staining with anti-T7 phage polyclonal antibody. Nuclei were stained with DAPI. […] Cells were co-stained for NRP1 and nuclei were stained with DAPI. […] Non-conjugated neutravidin was used as a control. Nuclei were stained with DAPI. Cells were analyzed by confocal microscopy.

[4] = target: T3, p32 in 4T1 breast tumor extracts; experiment: affinity chromatography of 4T1 tumor extracts on immobilized tLyP-1
[5] = target: T4, NRP1 on human tumor cells (DU145 …); experiment: phage binding to DU145 cells at 4 C with or without anti-NRP1 (FIG. 1B)

Binder	binding as fold over control (insertless) phage [1]	binding as fold over control (insertless) phage [2]	binding result [5]	also measured
B1	276 fold	29 fold	–	binding ratio over the control phage [1]: 280 fold
B2	1.6 fold	0.6 fold	–	binding result [1]: no binding; binding result [2]: no binding; binding result [3]: no binding
B3	–	–	–	binding result [4]: no binding
B4	–	–	no binding	–
B5	–	–	no binding	–
B6	119 fold	8 fold	–	binding as fold over insertless control phage [1]: ~120 fold
